Kd data for one molecule are collected here from article PMC13147308 (2025).

Assay in all cases: ITC; Tris buffer
A general note: ITC needs no label: the signal is the heat of the interaction.

Assay [1] addresses T1, Staphylococcus aureus Cas9, full length, His-tagged (Staphylococcus aureus, UniProt J7RUA5 1-1053).
T1 chain: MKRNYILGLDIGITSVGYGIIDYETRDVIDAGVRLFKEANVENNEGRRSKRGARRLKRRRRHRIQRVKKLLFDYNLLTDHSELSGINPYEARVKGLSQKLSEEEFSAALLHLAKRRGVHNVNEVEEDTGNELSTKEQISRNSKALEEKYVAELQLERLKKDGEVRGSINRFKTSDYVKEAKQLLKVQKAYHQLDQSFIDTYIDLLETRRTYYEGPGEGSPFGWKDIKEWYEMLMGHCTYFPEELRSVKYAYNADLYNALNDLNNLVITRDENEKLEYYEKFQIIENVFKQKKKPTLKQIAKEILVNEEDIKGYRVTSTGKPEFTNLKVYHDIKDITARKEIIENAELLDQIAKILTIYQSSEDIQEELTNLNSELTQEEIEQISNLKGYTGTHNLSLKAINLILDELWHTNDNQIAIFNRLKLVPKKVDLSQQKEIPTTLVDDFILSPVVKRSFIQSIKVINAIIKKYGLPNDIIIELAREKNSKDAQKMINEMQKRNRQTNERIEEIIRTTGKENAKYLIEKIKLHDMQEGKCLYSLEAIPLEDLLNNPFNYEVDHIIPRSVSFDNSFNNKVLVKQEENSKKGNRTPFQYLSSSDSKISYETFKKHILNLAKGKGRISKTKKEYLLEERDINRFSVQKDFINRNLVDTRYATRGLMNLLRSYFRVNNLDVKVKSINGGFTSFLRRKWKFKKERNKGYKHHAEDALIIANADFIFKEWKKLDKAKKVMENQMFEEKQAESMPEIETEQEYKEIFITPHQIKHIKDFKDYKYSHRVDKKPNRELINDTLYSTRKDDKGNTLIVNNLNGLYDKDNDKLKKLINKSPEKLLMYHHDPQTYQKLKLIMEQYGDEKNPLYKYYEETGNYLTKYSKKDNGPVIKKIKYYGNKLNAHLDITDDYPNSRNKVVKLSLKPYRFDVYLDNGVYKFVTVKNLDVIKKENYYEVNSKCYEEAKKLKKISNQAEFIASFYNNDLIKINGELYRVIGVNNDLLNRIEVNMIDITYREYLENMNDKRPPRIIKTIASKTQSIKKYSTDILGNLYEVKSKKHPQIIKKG

The target in assay [2] is T2, SauCas9 PI (PAM-interacting) domain, His-tagged (Staphylococcus aureus).
T2 chain: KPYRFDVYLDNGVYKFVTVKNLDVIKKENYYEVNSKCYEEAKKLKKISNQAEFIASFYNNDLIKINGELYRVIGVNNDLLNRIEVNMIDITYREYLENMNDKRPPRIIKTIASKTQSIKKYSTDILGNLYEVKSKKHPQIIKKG

The target of assay [3] is T3, SauCas9 WED-PI domain construct, His-tagged (Staphylococcus aureus).
T3 chain: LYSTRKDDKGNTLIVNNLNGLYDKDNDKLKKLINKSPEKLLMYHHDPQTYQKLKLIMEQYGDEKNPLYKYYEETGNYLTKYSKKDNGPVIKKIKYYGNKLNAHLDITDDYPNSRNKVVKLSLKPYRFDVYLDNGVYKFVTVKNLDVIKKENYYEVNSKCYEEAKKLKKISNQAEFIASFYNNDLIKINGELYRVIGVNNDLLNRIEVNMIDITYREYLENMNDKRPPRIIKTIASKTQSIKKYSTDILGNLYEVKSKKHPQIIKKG

Assay [4] addresses T4, SauCas9 WED (wedge-like) domain, His-tagged (Staphylococcus aureus).
T4 chain: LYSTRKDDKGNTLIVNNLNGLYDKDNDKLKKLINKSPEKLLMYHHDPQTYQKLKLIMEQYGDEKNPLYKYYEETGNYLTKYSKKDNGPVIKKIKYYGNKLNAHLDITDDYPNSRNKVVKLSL

B1: Staphylococcus haemolyticus AcrIIA13b, wild type, with C-terminal 6xHis tag (natural protein)
chain: MNELNNKMIEDVVLGEVELIEDLGQYFIDIEGDYEYNVEFATLSEVDYKVCALYEVATSKTYEVPYHDKLEKEDMKLFYDKWLEKDQQEETYIESVFFVNREDAESYIKDVLKGKESLTEVAAEIGYFELEHHHHHH
The term Kd denotes the equilibrium constant for the complex coming apart. Take B1: the Kd in assay [1] stood at 6.15 µM; in assay [2], 3.83 µM; in assay [3], 1.61 µM; in assay [4] it was 8.17 µM.
